Km data for two proteins are collected here from article PMC11727178, “Computer-Aided Design to Improve the Thermal Stability of Rhizomucor miehei Lipase” (Foods, 2024).

Substrate in the data set: CCCCCCCCCCCC(=O)Oc1ccc([N+](=O)[O-])cc1
As to the kind of experiment: p-nitrophenol release, Michaelis-Menten. The format is biochemical, Rhizomucor miehei.

B1: Rhizomucor miehei lipase (RML) (Rhizomucor miehei) (protein)
chain: VPIKRQSNSTVDSLPPLIPSRTSAPSSSPSTTDPEAPAMSRNGPLPSDVETKYGMALNATSYPDSVVQAMSIDGGIRAATSQEINELTYYTTLSANSYCRTVIPGATWDCIHCDATEDLKIIKTWSTLIYDTNAMVARGDSEKTIYIVFRGSSSIRNWIADLTFVPVSYPPVSGTKVHKGFLDSYGEVQNELVATVLDQFKQYPSYKVAVTGHSLGGATALLCALDLYQREEGLSSSNLFLYTQGQPRVGDPAFANYVVSTGIPYRRTVNERDIVPHLPPAAFGFLHAGEEYWITDNSPETVQVCTSDLETSDCSNSIVPFTSVLDHLSYFGINTGLCT
Take B1: where the note is “at the enzyme's optimal conditions (optimum 45 °C)”, the Michaelis-Menten constant (Km) (commonly the substrate concentration at which the rate is half of its maximum) was 92 µM.

B2: Rhizomucor miehei lipase (RML) (Rhizomucor miehei; E324I/N214M/N358M) (protein)
chain: VPIKRQSNSTVDSLPPLIPSRTSAPSSSPSTTDPEAPAMSRNGPLPSDVETKYGMALNATSYPDSVVQAMSIDGGIRAATSQEINELTYYTTLSANSYCRTVIPGATWDCIHCDATEDLKIIKTWSTLIYDTNAMVARGDSEKTIYIVFRGSSSIRNWIADLTFVPVSYPPVSGTKVHKGFLDSYGEVQMELVATVLDQFKQYPSYKVAVTGHSLGGATALLCALDLYQREEGLSSSNLFLYTQGQPRVGDPAFANYVVSTGIPYRRTVNERDIVPHLPPAAFGFLHAGEEYWITDNSPITVQVCTSDLETSDCSNSIVPFTSVLDHLSYFGIMTGLCT
Regarding B2, the Michaelis-Menten constant (Km) (at the enzyme's optimal conditions (optimum 55 °C)) was found to be 31.75 µM.
